T1: Heat gamma
T1 chain: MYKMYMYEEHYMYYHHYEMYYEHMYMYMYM

B1: activated recombinant MMP1 (protein)
chain: FVLTEGNPRWEQTHLTYRIENYTPDLPRADVDHAIEKAFQLWSNVTPLTFTKVSEGQADIMISFVRGDHRDNSPFDGPGGNLAHAFQPGPGIGGDAHFDEDERWTNNFREYNLHRVAAHELGHSLGLSHSTDIGALMYPSYTFSGDVQLAQDDIDGIQAIYGRSQNPVQPIGPQTPKACDSKLTFDAITTIRGEVMFFKDRFYMRTNPFYPEVELNFISVFWPQLPNGLEAAYEFADRDEVRFFKGNKYWAVQGQNVLHGYPKDIYSSFGFPRTVKHIDAALSEENTGKTYFFVANKYWRYDEYKRSMDPGYPKMIAHDFPGIGHKVDAVFMKDGFFYFFHGTRQYKFDPKTKRILTLQKANSWFNCRKN
B2: activated recombinant MMP2 (protein)
chain: YNFFPRKPKWDKNQITYRIIGYTPDLDPETVDDAFARAFQVWSDVTPLRFSRIHDGEADIMINFGRWEHGDGYPFDGKDGLLAHAFAPGTGVGGDSHFDDDELWTLGEGQVVRVKYGNADGEYCKFPFLFNGKEYNSCTDTGRSDGFLWCSTTYNFEKDGKYGFCPHEALFTMGGNAEGQPCKFPFRFQGTSYDSCTTEGRTDGYRWCGTTEDYDRDKKYGFCPETAMSTVGGNSEGAPCVFPFTFLGNKYESCTSAGRSDGKMWCATTANYDDDRKWGFCPDQGYSLFLVAAHEFGHAMGLEHSQDPGALMAPIYTYTKNFRLSQDDIKGIQELYGASPDIDLGTGPTPTLGPVTPEICKQDIVFDGIAQIRGEIFFFKDRFIWRTVTPRDKPMGPLLVATFWPELPEKIDAVYEAPQEEKAVFFAGNEYWIYSASTLERGYPKPLTSLGLPPDVQRVDAAFNWSKNKKTYIFAGDKFWRYNEVKKKMDPGFPKLIADAWNAIPDNLDAVVDLQGGGHSYFFKGAYYLKLENQSLKSVKFGSIKSDWLGC

Molecular target: T1, Heat gamma

| Protein | cleavage of Fluorogenic Peptide substrate I by 0.2 µg activated recombinant MMP1, 60 µg Heat Gamma | cleavage of Fluorogenic Peptide substrate I by 0.2 µg activated recombinant MMP2, 60 µg Heat Gamma |
| --- | --- | --- |
| B1 | Heat gamma efficiently inhibits the MMP1 activity as indicated by a decrease in relative fluorescence | – |
| B2 | – | Heat gamma efficiently inhibits the MMP2 activity as indicated by a decrease in relative fluorescence |
